# Results reported in patent US20160257732A1 (published 2016).
# Residue numbers refer to the chain shown, from its start. Several values for one entry are separate records, joined by “and”; a condition that tells them apart may be missing. Equal values may be shown once. Read-outs that look alike come from different tables or passages of the source.
# B1: Antibody 12 (antibody, V domains shown)
# VH: QVQLQQSGPGLVKPSQTLSLTCAISGDSVSSYNAVWNWIRQSPSRGLEWLGRTYYRSGWYNDYAESVKSRITINPDTSKNQFSLQLNSVTPEDTAVYYCARSGHITVFGVNVDAFDMWGQGTMVTVSS
# VL: DIQMTQSPSSLSASVGDRVTITCRTSQSLSSYTHWYQQKPGKAPKLLIYAASSRGSGVPSRFSGSGSGTDFTLTISSLQPEDFATYYCQQSRTFGQGTKVEIK
# B2: Antibody 14 (antibody, V domains shown)
# VH: B1 VH with Y32N, G58K, M123T
# VL: B1 VL with G55L
# B3: Antibody 6 (antibody, V domains shown)
# VH: QVQLQQSGPGLVKPSQTLSLTCAISGDRVSSNSAVWNWIRQSPSRGLEWLGRTYYRSKWYYDYAESVKSRIVIDPDTSKNQVSLQLNSVTPEDSAIYYCARGGHITEFGLNIDAYDIWGQGAMVTVSS
# VL: DIQMTQSPSSLSASVGDRVTISCRAQSLSSYLHWYQQKPGQPPKLLIYAATTLQSGVPSRFSGSGSGTDFTLTISTFQAEDVATYYCQQSRTFGQGTKVEIK
# B4: Antibody 8 (antibody, V domains shown)
# VH: QVQLQQSGPGLVKPSQTLSLTCVISGDTVSSNRATWNWMRQSPLRGLEWLGRTYYRSKWYNDYAVSVKSRVVINPDTSKNQVSLQLNTVTPDDSGVYFCARGGHITVFGVNIDAFDIWGLGTKVTVSS
# VL: DIQMTQSPSSLSASVGDRVTISCRASQRLNSYLHWYQQTPGQAPKLLIYATSTLQSGVSPRFSGSGSGTDFTLTISSLQPEDVATYYCQLSRTFGHGTKVEIK
# Key:
# Test in all cases: cell-based or functional assay
# [1] = biological target: HA of A/Fort Monmouth/1/47 (H1N1) (influenza A virus)
# [2] = biological target: HA of A/New Jersey/8/76 (H1N1) (influenza A virus)
# [3] = biological target: HA of A/Kawasaki/9/86 (H1N1) (influenza A virus)
# [4] = biological target: HA of ca A/Texas/36/91 (H1N1) (influenza A virus)
# [5] = biological target: HA of ca A/Beijing/262/95 (H1N1) (influenza A virus)
# [6] = biological target: HA of ca A/New Caledonia/20/99 (H1N1) (influenza A virus)
# [7] = biological target: HA of virus H1-BS10
# [8] = biological target: HA of ca A/Japan/57 (H2N2) (influenza A virus)
# [9] = biological target: HA of ca A/swine/Missouri/06 (H2N3) (influenza A virus)
# [10] = biological target: HA of ca A/Vietnam/1203/04 (H5N1) (influenza A virus)
# [11] = biological target: HA of ca A/Hong Kong/213/03 (H5N1) (influenza A virus)
# [12] = biological target: HA of ca A/mallard/Alberta/89/85 (H6N2) (influenza A virus)
# [13] = biological target: HA of ca A/teal/Hong Kong/W312/97 (H6N1) (influenza A virus)
# [14] = biological target: T1, HA of ca A/chicken/Hong Kong/G9/97 (H9N2) (influenza A virus)
# [15] = biological target: HA of A/Hong Kong/8/68 (H3N2) (influenza A virus)
# [16] = biological target: HA of A/Victoria/3/75 (H3N2) (influenza A virus)
# [17] = biological target: HA of ca A/Sydney/5/97 (H3N2) (influenza A virus)
# [18] = biological target: HA of ca A/Perth/16/09 (H3N2) (influenza A virus)
# [19] = biological target: HA of A/Victoria/361/11 (H3N2) (influenza A virus)
# [20] = biological target: HA of ca A/Netherlands/219/03 (H7N7) (influenza A virus)
# [21] = biological target: T2, HA of ca A/Brit. Columbia/CN-6/04 (H7N3-LP) (influenza A virus)
# [22] = biological target: HA of ca A/Anhui/1/13 (H7N9) (influenza A virus)
# [23] = biological target: HA of swine-origin A/Minnesota/11/2010 H3N2 virus (influenza A virus)
# [24] = biological target: HA of ca A/Panama/2007/99 (H3N2) (influenza A virus)
# [25] = biological target: HA of A/Wisconsin/67/05 (H3N2) (influenza A virus)
# [26] = biological target: HA of A/Fort Monmouth/1/47 (H1N1) (influenza A virus); remark: listed apart in the source
# [27] = biological target: HA of A/New Jersey/8/76 (H1N1) (influenza A virus); remark: listed apart in the source
# [28] = biological target: HA of A/Kawasaki/9/86 (H1N1) (influenza A virus); remark: listed apart in the source
# [29] = biological target: HA of ca A/Texas/36/91 (H1N1) (influenza A virus); remark: listed apart in the source
# [30] = biological target: HA of ca A/Beijing/262/95 (H1N1) (influenza A virus); remark: listed apart in the source
# [31] = biological target: HA of ca A/New Caledonia/20/99 (H1N1) (influenza A virus); remark: listed apart in the source
# [32] = biological target: HA of ca A/swine/Missouri/06 (H2N3) (influenza A virus); remark: listed apart in the source
# [33] = biological target: HA of ca A/Vietnam/1203/04 (H5N1) (influenza A virus); remark: listed apart in the source
# [34] = biological target: HA of ca A/Hong Kong/213/03 (H5N1) (influenza A virus); remark: listed apart in the source
# [35] = biological target: HA of ca A/teal/Hong Kong/W312/97 (H6N1) (influenza A virus); remark: listed apart in the source
# [36] = biological target: T1, HA of ca A/chicken/Hong Kong/G9/97 …; remark: listed apart in the source
# [37] = biological target: HA of A/Hong Kong/8/68 (H3N2) (influenza A virus); remark: listed apart in the source
# [38] = biological target: HA of A/Victoria/3/75 (H3N2) (influenza A virus); remark: listed apart in the source
# [39] = biological target: HA of ca A/Sydney/5/97 (H3N2) (influenza A virus); remark: listed apart in the source
# [40] = biological target: HA of ca A/Panama/2007/99 (H3N2) (influenza A virus); remark: listed apart in the source
# [41] = biological target: HA of A/Wyoming/03/03 (H3N2) (influenza A virus)
# [42] = biological target: HA of A/Wisconsin/67/05 (H3N2) (influenza A virus); remark: listed apart in the source
# [43] = biological target: HA of ca A/Perth/16/09 (H3N2) (influenza A virus); remark: listed apart in the source
# [44] = biological target: HA of ca A/Netherlands/219/03 (H7N7) (influenza A virus); remark: listed apart in the source
# [45] = biological target: T2, HA of ca A/Brit. Columbia/CN-6/04 …; remark: listed apart in the source
binder,measurement,setting,value
B1,"Neutralization IC50, H1-FM47",[1],0.28 mg/L
same,"Neutralization IC50, H1-NJ76",[2],0.12 mg/L
same,"Neutralization IC50, H1-Kaw86",[3],0.28 mg/L
same,"Neutralization IC50, H1-TX91",[4],0.12 mg/L
same,"Neutralization IC50, H1-BJ95",[5],1.31 mg/L
same,"Neutralization IC50, H1-Ncal99",[6],0.61 mg/L
same,"Neutralization IC50, H1-BS10",[7],1.25 mg/L
same,"Neutralization IC50, H2-JP57",[8],0.35 mg/L
same,"Neutralization IC50, H2-MO06",[9],0.53 mg/L
same,"Neutralization IC50, H5-VM04",[10],0.31 mg/L
same,"Neutralization IC50, H5-HK03",[11],0.17 mg/L
same,"Neutralization IC50, H6-AB85",[12],0.32 mg/L
same,"Neutralization IC50, H6-HK97",[13],0.45 mg/L
same,"Neutralization IC50, H9-HK97",[14],0.31 mg/L
same,"Neutralization IC50, H3-HK68",[15],0.42 mg/L
same,"Neutralization IC50, H3-Vic75",[16],0.32 mg/L
same,"Neutralization IC50, H3-Syd97",[17],1.56 mg/L
same,"Neutralization IC50, H3-Perth09",[18],0.25 mg/L
same,"Neutralization IC50, H3-VC11",[19],0.83 mg/L
same,"Neutralization IC50, H7-NLD03",[20],0.83 mg/L
same,"Neutralization IC50, H7-BC04",[21],0.78 mg/L
same,"Neutralization IC50, H7-ANU13",[22],2.56 mg/L
same,"Neutralizing activity IC50, swine-origin A/Minnesota/11/2010",[23],1.1 mg/L and 1.2 mg/L
B2,"Neutralization IC50, H1-FM47",[1],0.44 mg/L
same,"Neutralization IC50, H1-NJ76",[2],0.11 mg/L
same,"Neutralization IC50, H1-Kaw86",[3],0.35 mg/L
same,"Neutralization IC50, H1-TX91",[4],0.09 mg/L
same,"Neutralization IC50, H1-BJ95",[5],2.09 mg/L
same,"Neutralization IC50, H1-Ncal99",[6],0.67 mg/L
same,"Neutralization IC50, H1-BS10",[7],1.93 mg/L
same,"Neutralization IC50, H2-JP57",[8],0.67 mg/L
same,"Neutralization IC50, H2-MO06",[9],0.65 mg/L
same,"Neutralization IC50, H5-VM04",[10],0.33 mg/L
same,"Neutralization IC50, H5-HK03",[11],0.21 mg/L
same,"Neutralization IC50, H6-AB85",[12],0.26 mg/L
same,"Neutralization IC50, H6-HK97",[13],0.26 mg/L
same,"Neutralization IC50, H9-HK97",[14],0.44 mg/L
same,"Neutralization IC50, H3-HK68",[15],0.65 mg/L
same,"Neutralization IC50, H3-Vic75",[16],0.44 mg/L
same,"Neutralization IC50, H3-Syd97",[17],1.82 mg/L
same,"Neutralization IC50, H3-Pa99",[24],4.36 mg/L
same,"Neutralization IC50, H3-WI05",[25],1.19 mg/L
same,"Neutralization IC50, H3-Perth09",[18],0.47 mg/L
same,"Neutralization IC50, H3-VC11",[19],1.15 mg/L
same,"Neutralization IC50, H7-NLD03",[20],1.16 mg/L
same,"Neutralization IC50, H7-BC04",[21],0.86 mg/L
same,"Neutralization IC50, H7-ANU13",[22],2.12 mg/L
same,"Neutralizing activity IC50, swine-origin A/Minnesota/11/2010",[23],1.4 mg/L and 2.3 mg/L
B3,"Neutralization IC50, H1-FM47",[26],3.04 mg/L
same,"Neutralization IC50, H1-NJ76",[27],2.6 mg/L
same,"Neutralization IC50, H1-Kaw86",[28],3.51 mg/L
same,"Neutralization IC50, H1-TX91",[29],2.2 mg/L
same,"Neutralization IC50, H1-BJ95",[30],20.9 mg/L
same,"Neutralization IC50, H1-Ncal99",[31],3 mg/L
same,"Neutralization IC50, H2-MO06",[32],2.9 mg/L
same,"Neutralization IC50, H5-VM04",[33],8.87 mg/L
same,"Neutralization IC50, H5-HK03",[34],10.4 mg/L
same,"Neutralization IC50, H6-HK97",[35],3.23 mg/L
same,"Neutralization IC50, H9-HK97",[36],16.5 mg/L
same,"Neutralization IC50, H3-HK68",[37],2.04 mg/L
same,"Neutralization IC50, H3-Vic75",[38],1.09 mg/L
same,"Neutralization IC50, H3-Syd97",[39],6.54 mg/L
same,"Neutralization IC50, H3-Pa99",[40],25.8 mg/L
same,"Neutralization IC50, H3-Wy03",[41],4.7 mg/L
same,"Neutralization IC50, H3-WI05",[42],6.76 mg/L
same,"Neutralization IC50, H3-Perth09",[43],5.03 mg/L
same,"Neutralization IC50, H7-NLD03",[44],> 50 mg/L
same,"Neutralization IC50, H7-BC04",[45],> 50 mg/L
B4,"Neutralization IC50, H1-FM47",[26],1.37 mg/L
same,"Neutralization IC50, H1-NJ76",[27],2.26 mg/L
same,"Neutralization IC50, H1-Kaw86",[28],2.11 mg/L
same,"Neutralization IC50, H1-TX91",[29],0.7 mg/L
same,"Neutralization IC50, H1-BJ95",[30],10.6 mg/L
same,"Neutralization IC50, H1-Ncal99",[31],2.06 mg/L
same,"Neutralization IC50, H2-MO06",[32],2.62 mg/L
same,"Neutralization IC50, H5-VM04",[33],3.9 mg/L
same,"Neutralization IC50, H5-HK03",[34],1.82 mg/L
same,"Neutralization IC50, H6-HK97",[35],2.97 mg/L
same,"Neutralization IC50, H9-HK97",[36],26.4 mg/L
same,"Neutralization IC50, H3-HK68",[37],2.82 mg/L
same,"Neutralization IC50, H3-Vic75",[38],3.83 mg/L
same,"Neutralization IC50, H3-Syd97",[39],> 50 mg/L
same,"Neutralization IC50, H3-Pa99",[40],> 50 mg/L
same,"Neutralization IC50, H3-Wy03",[41],> 50 mg/L
same,"Neutralization IC50, H3-WI05",[42],> 50 mg/L
same,"Neutralization IC50, H3-Perth09",[43],> 50 mg/L
same,"Neutralization IC50, H7-NLD03",[44],12.8 mg/L
same,"Neutralization IC50, H7-BC04",[45],14.7 mg/L
